According to the Human Domainome abundance scans (Beltran et al. 2025):
± gives the uncertainty stated by the source.

B1: Androgen receptor, residues 557 to 632; numbered along this chain, P10275 (parent)
chain: QKTCLICGDEASGCHYGALTCGSCKVFFKRAAEGKQKYLCASRNDCTIDKFRRKNCPSCRLRKCYEAGMTLGARKL

Variants of: B1
Assay: abundance fitness (aPCA) (normalised: wild type 0, dead -1); higher = more abundant; growth selection in yeast, the domain comes from the species named
Conditions: Homo sapiens
QKTCLICGDEASGCHYGALTCGSCKVFFKRAAEGKQKYLCASRNDCTIDKFRRKNCPSCRLRKCYEAGMTLFARKL [G72F] showed an abundance fitness of 0.06 ± 0.11.
QKTCLICGDEASGCHYGALTCGSCKVFFKRAAEGKQKYLCASRNDCTIDKFRRKNCPSCRLRKCYEAGMTWGARKL [L71W] showed an abundance fitness of -0.151 ± 0.11.
For QKTCLICGDEASGCHYGALTCGSCKVFFKRAAEGKQKYLCASRNDCTIDKFRRKNFPSCRLRKCYEAGMTLGARKL [C56F], the abundance fitness was -0.938 ± 0.22.
With QKTCLICGDEASGCHYGALTCGSCKVFFKRAAEGKQKYLCASRNDCTIDKFRRKNCPSCRLRKCYEAGMTLGRRKL [A73R] the abundance fitness was 0.008 ± 0.059.
In the case of QKTCLICGDEASGCHYGALTCGSCKVFFKRAAEGKQKYLCASRNNCTIDKFRRKNCPSCRLRKCYEAGMTLGARKL [D45N], the abundance fitness is reported as 0.009 ± 0.085.
QKTCLICKDEASGCHYGALTCGSCKVFFKRAAEGKQKYLCASRNDCTIDKFRRKNCPSCRLRKCYEAGMTLGARKL [G8K] gave an abundance fitness of -0.111 ± 0.076.
Work on QKTCLICGDEASGCHYGALTCRSCKVFFKRAAEGKQKYLCASRNDCTIDKFRRKNCPSCRLRKCYEAGMTLGARKL [G22R] yielded an abundance fitness of -0.166 ± 0.047.
QKTCLICGDEASGCHYGALTCGSCKVFFHRAAEGKQKYLCASRNDCTIDKFRRKNCPSCRLRKCYEAGMTLGARKL [K29H] gave an abundance fitness of -0.024 ± 0.1.
For QKTCLICGDEASGCHYGALTCGSCKVFFKRAAEGKQKYLCASRNDCTIDKFRRKNCPSCRLRKCYEAGMTMGARKL [L71M], the abundance fitness was 0.115 ± 0.078.
QKYCLICGDEASGCHYGALTCGSCKVFFKRAAEGKQKYLCASRNDCTIDKFRRKNCPSCRLRKCYEAGMTLGARKL [T3Y] gave an abundance fitness of -0.003 ± 0.15.
In the case of QKTCLINGDEASGCHYGALTCGSCKVFFKRAAEGKQKYLCASRNDCTIDKFRRKNCPSCRLRKCYEAGMTLGARKL [C7N], the abundance fitness is reported as -0.212 ± 0.14.
With QKTCLICGDEASGCHYGALTCGSCKVFFKRAAEGKQKYLCASRNDCTIDKFRRKNCPSCRLRKCKEAGMTLGARKL [Y65K] the abundance fitness was -0.178 ± 0.11.
With QKTCLICGDEASGCHYGALTCGSCKVFFKRAAEGPQKYLCASRNDCTIDKFRRKNCPSCRLRKCYEAGMTLGARKL [K35P] the abundance fitness was 0.074 ± 0.068.
With QKTCLICGDEAFGCHYGALTCGSCKVFFKRAAEGKQKYLCASRNDCTIDKFRRKNCPSCRLRKCYEAGMTLGARKL [S12F] the abundance fitness was -0.389 ± 0.23.
QKTCLICGDEASGCHYGALTCGSCKVFFKRAAEGKQKYLSASRNDCTIDKFRRKNCPSCRLRKCYEAGMTLGARKL [C40S] gave an abundance fitness of -0.713 ± 0.086.
QKTCLICGDEASGCHYNALTCGSCKVFFKRAAEGKQKYLCASRNDCTIDKFRRKNCPSCRLRKCYEAGMTLGARKL [G17N] showed an abundance fitness of -0.061 ± 0.23.
QKTCLICGDEASGCHYGALTCGSCKVFFKRAAEGKQKYLCASRNDPTIDKFRRKNCPSCRLRKCYEAGMTLGARKL [C46P] showed an abundance fitness of -0.926 ± 0.12.
QKTCLICGDEASGCHYGALTCGSCKCFFKRAAEGKQKYLCASRNDCTIDKFRRKNCPSCRLRKCYEAGMTLGARKL [V26C] showed an abundance fitness of -0.012 ± 0.058.
In the case of QKTCLICGDEASGCHYGALTCGSCKVFFKRAVEGKQKYLCASRNDCTIDKFRRKNCPSCRLRKCYEAGMTLGARKL [A32V], the abundance fitness is reported as -0.016 ± 0.05.
Work on QKTCLICGFEASGCHYGALTCGSCKVFFKRAAEGKQKYLCASRNDCTIDKFRRKNCPSCRLRKCYEAGMTLGARKL [D9F] yielded an abundance fitness of -0.562 ± 0.21.
QKTCLICGDEASNCHYGALTCGSCKVFFKRAAEGKQKYLCASRNDCTIDKFRRKNCPSCRLRKCYEAGMTLGARKL [G13N] gave an abundance fitness of -0.201 ± 0.13.
In the case of QKTCLICGDEASGCHYGALTCGSCKVFFKRAAEGKQKYLCASRWDCTIDKFRRKNCPSCRLRKCYEAGMTLGARKL [N44W], the abundance fitness is reported as -0.344 ± 0.061.
In the case of QKTCLICGDEASGCHYGALTCGSCKVFFKRAAEGKQKYLCASRNDCTIDKFRRKICPSCRLRKCYEAGMTLGARKL [N55I], the abundance fitness is reported as -0.075 ± 0.073.
With QKTCLICGDEASGCHYGALTCGSGKVFFKRAAEGKQKYLCASRNDCTIDKFRRKNCPSCRLRKCYEAGMTLGARKL [C24G] the abundance fitness was -0.907 ± 0.04.
QKTCLICGDEASGCHYGALTCGSCKVFFKRAAEGDQKYLCASRNDCTIDKFRRKNCPSCRLRKCYEAGMTLGARKL [K35D] showed an abundance fitness of -0.118 ± 0.083.
Work on QKTCLICGDEASGCHYGALTCGSCKVFFKRAAEGKQKYLCASRNDCTIDKFRRKNCPSCRLRQCYEAGMTLGARKL [K63Q] yielded an abundance fitness of -0.084 ± 0.11.
With QKTCLICGDEASGCHYGALTCGSCKVFFKRAAEGKQKYLCASRNDCTIEKFRRKNCPSCRLRKCYEAGMTLGARKL [D49E] the abundance fitness was -0.066 ± 0.089.
QKTCLICGDEASGCHYGALTCGSCKRFFKRAAEGKQKYLCASRNDCTIDKFRRKNCPSCRLRKCYEAGMTLGARKL [V26R] gave an abundance fitness of 0.019 ± 0.026.
QKTCLICGDEASGCHYGALWCGSCKVFFKRAAEGKQKYLCASRNDCTIDKFRRKNCPSCRLRKCYEAGMTLGARKL [T20W] showed an abundance fitness of -0.637 ± 0.084.
For QKTCLICGDEASGCHYGALTCGSCKVFFKRAAEGKQKYLCASRNDCTIDNFRRKNCPSCRLRKCYEAGMTLGARKL [K50N], the abundance fitness was 0.087 ± 0.34.
For QKDCLICGDEASGCHYGALTCGSCKVFFKRAAEGKQKYLCASRNDCTIDKFRRKNCPSCRLRKCYEAGMTLGARKL [T3D], the abundance fitness was -0.171 ± 0.084.
QKTCLICGDEASGCHYGALTCGSCKVFFKRAAEGKQKYLCASRNDCTIDKFRRKNCPSCRLRKLYEAGMTLGARKL [C64L] gave an abundance fitness of -0.592 ± 0.16.
Variant QKTCLICGDEASGCHYGALTCGSCKVFFKRAAEGKQKYLCASRNDCTIDKFRRKNCPSCRLRKCYEAGMTLGANKL [R74N] has an abundance fitness of -0.044 ± 0.1.
QKTCLICGNEASGCHYGALTCGSCKVFFKRAAEGKQKYLCASRNDCTIDKFRRKNCPSCRLRKCYEAGMTLGARKL [D9N] showed an abundance fitness of -0.008 ± 0.1.
In the case of QKTCLICGDEASGCHYWALTCGSCKVFFKRAAEGKQKYLCASRNDCTIDKFRRKNCPSCRLRKCYEAGMTLGARKL [G17W], the abundance fitness is reported as -0.645 ± 0.065.
Variant QKTCLICGDEASGCHYGALTCGSCKWFFKRAAEGKQKYLCASRNDCTIDKFRRKNCPSCRLRKCYEAGMTLGARKL [V26W] has an abundance fitness of -0.181 ± 0.037.
